According to patent publication US20200247855A1, “THERAPY AND DIAGNOSTICS” (OXFORD UNIVERSITY INNOVATION LIMITED, priority 2017, published 2020):
Read-outs that look alike come from different tables or passages of the source.

Legend:
CXCL1_HUMAN [1] = molecular target: T1, CXCL1_HUMAN (Homo sapiens, UniProt P09341); test: Biolayer interferometry (BLI) binding; set-up: label (chemical)
T1 sequence (P09341 35-107): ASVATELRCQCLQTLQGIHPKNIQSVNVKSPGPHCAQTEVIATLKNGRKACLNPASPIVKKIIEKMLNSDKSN
Method: (§1) Table 1. Tick CKBPs described in PCT/GB2017/050563 and [17]. Tick peptide sequences isolated in yeast surface display fluorescent-activated cell sorting (FACS) screens using a labelled chemokine. Identity with Evasin-1, 4 or 3 was calculated using BLAST. Abbreviations: IXORI—Ixodes ricinus, RHISA—Rhipicephalus sanguineus, AMBMA—Amblyomma maculatum, AMBPA—Amblyomma parvum, AMBTR—Amblyomma triste, AMBAM—Amblyomma americanum, AMBCA—Amblyomma cajennense, RHIPU—Rhipicephalus pulchellus. Table 2A-C. Binding characteristics of tick CKBPs previously disclosed (PCT/GB2017/050563 and [17]). All members of the human chemokine family[164] are listed in column 1. Binding to human chemokines was determined for 14 tick CKBPs using biolayer interferometry (BLI) with calculated Kd shown as Molar (Moles/Litre). […] Association, equilibrium and dissociation data were analysed using Octet software to create corresponding fitted curves, and used to calculate Kd. For yeast surface display, (YSD) background fluorescence was controlled for by using either an empty vector or by omitting the chemokine (i.e. using streptavidin-Alexa647 alone). An arbitrary threshold of >3 fold over background mean fluorescence intensity was chosen to describe confirmed re-tests. Where binding was detected data are indicated as “YES”. […] Data was analysed using GraphPad Prism to determine IC50, which is shown as Molar (Moles/Litre). […]

CXCL8_HUMAN [2] = molecular target: T2, CXCL8_HUMAN (Homo sapiens, UniProt P10145); test: Biolayer interferometry (BLI) binding; set-up: label (chemical)
T2 sequence (P10145 21-99): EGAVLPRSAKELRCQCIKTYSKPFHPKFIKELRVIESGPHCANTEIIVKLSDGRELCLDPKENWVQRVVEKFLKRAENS
Method: as §1

CXCL3_HUMAN = molecular target: T3, CXCL3_HUMAN (Homo sapiens, UniProt P19876); test: Biolayer interferometry (BLI) binding
T3 sequence (P19876 35-107): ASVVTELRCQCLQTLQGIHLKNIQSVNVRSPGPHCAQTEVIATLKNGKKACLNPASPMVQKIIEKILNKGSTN
Method in brief: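 His-tagged purified tick CKBP captured on Ni-NTA sensors (Octet Red384); chemokine first screened at 300 nM, then binders re-run across several chemokine doses. Kd derived from fitted association, equilibrium and dissociation curves, reported in molar units.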

CCL4_HUMAN = molecular target: T4, CCL4_HUMAN (Homo sapiens, UniProt P13236); test: Yeast surface display (YSD) FACS binding
T4 sequence (P13236 24-92): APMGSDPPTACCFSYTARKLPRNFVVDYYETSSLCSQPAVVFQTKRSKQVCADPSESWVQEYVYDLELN
Method in brief: (§2)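 Yeast clones displaying tick peptides were re-tested by FACS with labelled chemokine. Binding = % of peptide-expressing yeast above a background threshold set with streptavidin-Alexa647 alone; the mean percent shift was used where several clones were isolated. Confirmed binding ("YES") required >3-fold over background mean fluorescence intensity.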

CCL25_HUMAN = molecular target: T5, CCL25_HUMAN (Homo sapiens, UniProt O15444); test: Yeast surface display (YSD) FACS binding
T5 sequence (O15444 24-150): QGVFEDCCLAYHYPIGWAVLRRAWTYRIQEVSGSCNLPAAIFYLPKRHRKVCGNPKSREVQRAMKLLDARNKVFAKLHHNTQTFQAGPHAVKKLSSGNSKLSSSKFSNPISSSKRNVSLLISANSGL
Method in brief: as §2

CCL5_HUMAN = molecular target: T6, CCL5_HUMAN (Homo sapiens, UniProt P13501); test: Yeast surface display (YSD) FACS binding
T6 sequence (P13501 24-91): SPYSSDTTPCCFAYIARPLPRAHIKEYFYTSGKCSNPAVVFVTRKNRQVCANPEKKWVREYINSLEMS
Method in brief: as §2

CCL15_HUMAN = molecular target: T7, CCL15_HUMAN (Homo sapiens, UniProt Q16663); test: Yeast surface display (YSD) FACS binding
T7 sequence (Q16663 22-113): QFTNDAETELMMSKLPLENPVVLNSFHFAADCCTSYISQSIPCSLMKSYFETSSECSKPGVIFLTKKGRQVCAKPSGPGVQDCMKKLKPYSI
Method in brief: as §2

CCL19_HUMAN = molecular target: T8, CCL19_HUMAN (Homo sapiens, UniProt Q99731); test: Yeast surface display (YSD) FACS binding
T8 sequence (Q99731 22-98): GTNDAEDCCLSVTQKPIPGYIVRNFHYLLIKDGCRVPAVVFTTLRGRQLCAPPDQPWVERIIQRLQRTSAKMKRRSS
Method in brief: as §2

chemokines = conditions: list of chemokines bound, from the literature [18,20-22]; cited from earlier work
CXCL1_HUMAN [3] = molecular target: T1, CXCL1_HUMAN; conditions: read-out: Kd, CXCL1_HUMAN, previously described evasins; data obtained from publications [20-22,32]; cited from earlier work
CXCL8_HUMAN [4] = molecular target: T2, CXCL8_HUMAN; conditions: read-out: Kd, CXCL8_HUMAN, previously described evasins; data obtained from publications [20-22,32]; cited from earlier work

B1: P1156_IXORI: tick CKBP, Ixodes ricinus (protein, listed as Ixodes ricinus)
chain: ADDDNELFTVQYCGMNCTKDEGGTWTGCTGKKEGCKCYHESGKNYGLCLSTEYTDFSQYGNPSDSEIEAAKPKRSDTLSH
CXCL1_HUMAN [1]
  Kd: 3.25 nM
CXCL8_HUMAN [2]
  Kd: 4.6 nM
CXCL3_HUMAN
  Kd: 81 nM

B2: P1014_AMBCA: tick CKBP, Amblyomma cajennense (protein)
chain: DIIGGIPGCGDPTTTSAPEVPPKHFAVRTDKDGCTLMIIGTWMTTEDHNRLPPDIGEKRAPYGRVQLPASCKKNCHGKVKNLPNGTPCREVFGDPRRGRKHIKNGCTVGKCQSGLCVTDKRIISCYIPPNITDPIPTHGPWAE
modifications: Amblyomma cajennense
CCL4_HUMAN
  Binding to CCL4_HUMAN, YSD: YES (An arbitrary threshold of >3 fold over background mean fluorescence intensity was chosen to describe confirmed re-tests. Where binding was detected data are indicated as “YES”)

B3: P1006_AMBCA: tick CKBP, Amblyomma cajennense (protein)
chain: DTIGGIPGCGDPATTSAPEDQPKHYAVRTDKNGCKVMVIGTWMTKEDHNLLPPYISKERAPSGKVQLPASCKKNCHGKLKNLPNGTPCREVFGDLRRRRKHIKDGCKVGKCQNGLCVSEERIISCYLPPNITDPRPTHGPLAE
modifications: Amblyomma cajennense
CCL25_HUMAN
  Binding to CCL25_HUMAN, YSD: YES (An arbitrary threshold of >3 fold over background mean fluorescence intensity was chosen to describe confirmed re-tests. Where binding was detected data are indicated as “YES”)
CCL5_HUMAN
  Binding to CCL5_HUMAN, YSD: YES (An arbitrary threshold of >3 fold over background mean fluorescence intensity was chosen to describe confirmed re-tests. Where binding was detected data are indicated as “YES”)
CCL15_HUMAN
  Binding to CCL15_HUMAN, YSD: YES (An arbitrary threshold of >3 fold over background mean fluorescence intensity was chosen to describe confirmed re-tests. Where binding was detected data are indicated as “YES”)
CCL19_HUMAN
  Binding to CCL19_HUMAN, YSD: YES (An arbitrary threshold of >3 fold over background mean fluorescence intensity was chosen to describe confirmed re-tests. Where binding was detected data are indicated as “YES”)

B4: EVASIN3: previously described tick CKBP evasin 3, from Rhipicephalus sanguineus (protein, listed as Rhipicephalus sanguineus)
chain: LVSTIESRTSGDGADNFDVVSCNKNCTSGQNECPEGCFCGLLGQNKKGHCYKIIGNLSGEPPVVRR
chemokines
  Previously described chemokine binding: CXCL1, CXCL8.
CXCL1_HUMAN [3]
  Kd: 0.85 nM
CXCL8_HUMAN [4]
  Kd: 0.43 nM
